To fix the notation:
B1: 11H1 (Fab, V domains shown)
VH: QVQLLQSGAEVKKPGASVKVPCKASGYTFTSYAMSWVRQAPGQGLEWMGWINTNTGNPTYAQGFTGRFVFSLDTSVSTAYLQISSLKAEDTAVYYCARVRLTVYGDGMDVWGQGTLVTVSS
VL: EIVLTQSPATLSVSPGERATLSCRASQSVSSNLAWYQQKPGQAPRLLIYGASTRATGIPDRFSASGSGTDFTLTISRVEPEDFAVYYCQQYGSSWTFGQGTKVEIK
notes: Fab with human gamma1 CH1 and human kappa constant domain; also called GEA44衍生物11H1
B2: 6B7 (Fab, V domains shown)
VH: QVQLLQSGAEVKKPGASVKVPCKASGYTFTSRAMSWVRQAPGQGLEWMGWINTNTGNPTYAQGFTGRFVFSLDTSVSTAYLQISSLKAEDTAVYYCARVRFTVYGDGMDVWGQGTLVTVSS
VL: EIVLTQSPATLSVSPGERATLSCRASQSVSSNPAWYQQKPGQAPRLLIYGASTRATGIPDRFSASGSGTDFTLTISRVEPEDFAVYYCQQYGPSWTFGQGTKVEIK
B3: 1G11 (Fab, V domains shown)
VH: QVQLLQSGAEVKKPGASVKVPCKASGYTFTSRAMSWVRQAPGQGLEWMGWINTNTGNPTYAQGFTGRFVFSLDTSVSTAYLQISSLKAEDTAVYYCARVRFTVYGDGMDVWGQGTLVTVSS
VL: EIVLTQSPATLSVSPGERATLSCRASQSVSSNLPWYQQKPGQAPRLLIYGASTRPTGIPDRFSASGSGTDFTLTISRVEPEDFAVYYCQQYGPSWTFGQGTKVEIK
B4: 3A12 (Fab, V domains shown)
VH: QVQLLQSGAEVKKPGASVKVPCKASGYTFTSRAMSWVRQAPGQGLEWMGWINTNTGNPTYAQGFTGRFVFSLDTSVSTAYLQISSLKAEDTAVYYCARVRFTVYGDGMDVWGQGTLVTVSS
VL: EIVLTQSPATLSVSPGERATLSCRASQSVSSNLAWYQQKPGQAPRLLIYGASTWATGIPDRFSASGSGTDFTLTISRVEPEDFAVYYCQQYGPSWTFGQGTKVEIK
B5: 1B10 (Fab, V domains shown)
VH: QVQLLQSGAEVKKPGASVKVPCKASGYTFTSRAMSWVRQAPGQGLEWMGWINTNTGNPTYAQGFTGRFVFSLDTSVSTAYLQISSLKAEDTAVYYCARVRFTVYGDGMDVWGQGTLVTVSS
VL: EIVLTQSPATLSVSPGERATLSCRASQSVSSNPAWYQQKPGQAPRLLIYGASTWATGIPDRFSASGSGTDFTLTISRVEPEDFAVYYCQQYGPSWTFGQGTKVEIK
B6: 1D11 (Fab, V domains shown)
VH: QVQLLQSGAEVKKPGASVKVPCKASGYTFTSRAMSWVRQAPGQGLEWMGWINTNTGNPTYAQGFTGRFVFSLDTSVSTAYLQISSLKAEDTAVYYCARVRTTVYGDNMDVWGQGTLVTVSS
VL: EIVLTQSPATLSVSPGERATLSCRASQSVSSNLPWYQQKPGQAPRLLIYGASTRATGIPDRFSASGSGTDFTLTISRVEPEDFAVYYCQQYGPSWTFGQGTKVEIK
B7: 1A4 (Fab, V domains shown)
VH: QVQLLQSGAEVKKPGASVKVPCKASGYTFTSRAMSWVRQAPGQGLEWMGWINTNTGNPTYAQGSTGRFVFSLDTSVSTAYLQISSLKAEDTAVYYCARVRFTVYGDGMDVWGQGTLVTVSS
VL: EIVLTQSPATLSVSPGERATLSCRASQSVSSNPAWYQQKPGQAPRLLIYGASTRATGIPDRFSASGSGTDFTLTISRVEPEDFAVYYCQQYGPSWTFGQGTKVEIK
B8: 3C6 (Fab, V domains shown)
VH: QVQLLQSGAEVKKPGASVKVPCKASGYTFTSRAMSWVRQAPGQGLEWMGWINTNTGNPTYAQGFTGRFVFSLDTSVSTAYLQISSLKAEDTAVYYCARVRLTVYGDGMDVWGQGTLVTVSS
VL: EIVLTQSPATLSVSPGERATLSCRASQSVSSNPPWYQQKPGQAPRLLIYGASTRATGIPDRFSASGSGTDFTLTISRVEPEDFAVYYCQQYGSSWTFGQGTKVEIK

We go through eight molecules from CN101123983A (MEDIMMUNE INC, dated 2008).

The target of the first test is T1, 人EphA4-His融合蛋白 (human EphA4 extracellular domain fused to a histidine tag) (human, UniProt P54764 20-547).
T1 construct: also called rhuEphA4-His; not shown: histidine tag
T1 sequence (P54764 20-547): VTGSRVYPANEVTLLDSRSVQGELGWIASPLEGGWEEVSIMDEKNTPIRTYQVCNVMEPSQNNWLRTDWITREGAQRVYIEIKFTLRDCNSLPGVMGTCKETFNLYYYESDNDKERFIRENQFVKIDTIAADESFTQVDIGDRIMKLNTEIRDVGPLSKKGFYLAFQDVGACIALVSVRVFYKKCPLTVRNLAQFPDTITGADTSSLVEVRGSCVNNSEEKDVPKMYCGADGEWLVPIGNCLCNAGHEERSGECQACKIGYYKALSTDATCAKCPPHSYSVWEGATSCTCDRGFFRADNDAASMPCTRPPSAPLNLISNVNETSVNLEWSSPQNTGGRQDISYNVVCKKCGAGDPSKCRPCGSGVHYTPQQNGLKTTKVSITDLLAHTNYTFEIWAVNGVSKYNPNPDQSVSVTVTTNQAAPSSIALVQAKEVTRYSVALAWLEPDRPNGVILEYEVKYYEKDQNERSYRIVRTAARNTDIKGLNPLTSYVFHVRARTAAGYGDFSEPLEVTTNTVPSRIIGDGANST
As to the kind of experiment: secondary screen: activity ELISA on coated human EphA4-His, normalised by Fab quantitation ELISA, against parent Fab20. In general terms: In an ELISA, binding on a coated surface is turned into a signal by an enzyme label.
With B1, the binding result was “binds”.

The target in the next test is T1, 人EphA4-His融合蛋白 (human EphA4 …). As to the kind of experiment: secondary screen of combination variant Fabs: activity ELISA on coated human EphA4-His, normalised by Fab quantitation ELISA.
For B2, the binding result was “binds”.
Regarding B3, the binding result is recorded as “binds”.
Same read-out and setting: the result for B4 reads “binds”.
Same read-out and setting: with B5 the entry was “binds”; with B6, “binds”; with B7, “binds”.
Same read-out and setting: the result for B8 reads “binds”.
